Biological target: Luciferase (UniProt P08659 1-550 = luciferase, limits assumed)
Experiment: pull-down: 1:1 mix, immunoprecipitation with anti-OVA antibody, western blot with anti-luciferase antibody
Procedure: Lanes with no chaperone (1st lane) were included as controls. […] In the bottom panel, WB was performed with anti-luciferase to confirm that OVA pull-down was successful.
After SDS-PAGE (10%) electrophoresis, western blot analysis was performed using anti-luciferase (Promega, Madison, Wis.) or anti-gp100 antibody (Santa Cruz Biotechnology, Santa Cruz, Calif.).

Luciferase, sequence (P08659 whole entry): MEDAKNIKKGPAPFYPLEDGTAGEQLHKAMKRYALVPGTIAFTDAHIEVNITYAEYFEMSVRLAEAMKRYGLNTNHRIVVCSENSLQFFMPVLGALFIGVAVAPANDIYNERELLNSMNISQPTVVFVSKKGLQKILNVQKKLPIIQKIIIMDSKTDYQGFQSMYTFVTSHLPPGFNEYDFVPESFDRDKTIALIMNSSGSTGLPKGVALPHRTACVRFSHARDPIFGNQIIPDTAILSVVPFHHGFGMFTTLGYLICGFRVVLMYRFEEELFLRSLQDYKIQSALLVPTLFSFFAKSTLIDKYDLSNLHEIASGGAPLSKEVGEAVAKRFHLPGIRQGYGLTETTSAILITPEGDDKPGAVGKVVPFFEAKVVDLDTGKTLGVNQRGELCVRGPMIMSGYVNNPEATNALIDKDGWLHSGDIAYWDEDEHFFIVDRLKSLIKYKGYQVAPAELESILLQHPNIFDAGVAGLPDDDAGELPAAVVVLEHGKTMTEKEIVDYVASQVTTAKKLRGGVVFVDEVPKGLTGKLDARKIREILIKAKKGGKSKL

binding result: no binding
B1: Ovalbumin (other, UniProt P01012 2-386, looked up)
chain: GSIGAASMEFCFDVFKELKVHHANENIFYCPIAIMSALAMVYLGAKDSTRTQINKVVRFDKLPGFGDSIEAQCGTSVNVHSSLRDILNQITKPNDVYSFSLASRLYAEERYPILPEYLQCVKELYRGGLEPINFQTAADQARELINSWVESQTNGIIRNVLQPSSVDSQTAMVLVNAIVFKGLWEKAFKDEDTQAMPFRVTEQESKPVQMMYQIGLFRVASMASEKMKILELPFASGTMSMLVLLPDEVSGLEQLESIINFEKLTEWTSSNVMEERKIKVYLPRMKMEEKYNLTSVLMAMGITDVFSSSANLSGISSAESLKISQAVHAAHAEINEAGREVVGSAEAGVDAASVSEEFRADHPFLFCIKHIATNAVLFFGRCVSP
notes: Negative control protein

Reference: patent US20090142365A1 (HEALTH RESEARCH, published 2009)
